Results taken from patent US20020132769A1.

Target: fiber on the vector capsid of the adenoviral vector Av3GFP (adenovirus, serotype not stated)
Assay: cell-based or functional assay

trimerized sCAR (sCAR followed by a glycine/serine linker, the isoleucine variant GCN4 trimerization domain, and a 6 His Tag; plasmid pGStriCARb) (receptor)
% GFP Positive HepG2 cells, Av3GFP + 5 µg trimeric sCAR (Av3GFP alone: 98): 43% | % GFP Positive HepG2 cells, Av3GFP + 10 µg trimeric sCAR (Av3GFP alone: 98): 32% | % GFP Positive HepG2 cells, Av3GFP + 20 µg trimeric sCAR (Av3GFP alone: 98): 32%
